Experimental data taken from US8497352B2, “Use of Wnt5-α peptide derivates for the treatment of melanoma and gastric cancer” (Wntresearch AB, priority 2008, dated 2013).

What was measured:
Type in all cases: cell-based, human
A2058 melanoma cells [1] = assay: Cell adhesion assay, A2058 cells; conditions: recombinant Wnt-5a, 60 min adhesion
Description: Cells pre-treated and stimulated as described below were detached with Versene, re-suspended in serum-free RPMI medium and samples containing 30,000 cells from each treatment group were added to each well of a 96-well plate The cells were allowed to adhere for 60 min at 37° C. in a humidified atmosphere of 5% carbon dioxide after which the non-adherent cells were washed away with PBS. The adherent cells were fixed in 1% glutaraldehyde for 10 min at room temperature and then stained with 0.5% crystal violet in 20% methanol for 10 min. Finally the stain from each group of cells was dissolved in 50% acetic acid. The amount of dissolved stain from each well was thereafter measured in a Fluostar plate reader (BMG Lab Technologies GmbH, Offenberg, Germany) at 544 nm. The individual samples from each separate experiment were analysed in quadruplicate and the accumulated data were based on 5 separate experiments. The results are illustrated in FIG. 4. • A) A2058 melanoma cells were stimulated with the indicated concentrations of Wnt-5a, detached with Versene and resuspended as single cells in serum-free medium in the presence or absence of recombinant Wnt-5a at the indicated concentrations. Cells were then allowed to adhere in a 96-well plate. After a period of 60 min the non-adherent cells were washed away while the adherent cells were stained and their number determined. This number is presented as a percentage of the control (no Wnt-5a) stimulation (FIG. 4A) • B) A2058 melanoma cells were cultured to confluence in a 12-well plate after which a scratch was inflicted in each well, the medium was changed to fresh serum-free medium lacking (closed circles) or containing 0.2 μg/ml Wnt-5a (open squares). (FIG. 4B) • C) A2058 melanoma cells were cultured to confluence in a 12-well plate after which a scratch was inflicted to each well, the medium was changed to fresh serum-free medium in the absence of any additive (closed circle), the presence of 0.2 μg/ml Wnt-5a alone (open squares) or the presence of 0.2 μg/ml Wnt-5a with 100 μM Box5 (open triangle). (FIG. 4C) • D) HTB63 melanoma cells were cultured to confluence in a 12-well dish after which a scratch was inflicted to each well, the medium was changed to fresh serum-free medium (closed circle), conditioned medium (open squares) or conditioned medium supplemented with 100 μM Box5 (open triangle). To record changes in migration in panels B-D, a picture was taken from each scratch/well from the same area of cells after 0, 16, 24, 40 or 48 hours, and the wound-healing was expressed as percentage of wound area closed. […] The cells were then allowed to invade for 24 hours after which the attached cells on the lower side of the membrane were counted. […]

A2058 melanoma cells [2] = assay: BD Matrigel invasion chamber assay, A2058 cells; conditions: 0.2 μg/ml Wnt-5a, 24 hours
Description: Cell invasion was analyzed using the BD Matrigel™ invasion chamber assay (BD Biosciences, Bedford, Mass.). Prior to the initiation of each experiment, the cells were detached with Versene and re-suspended as single cells in serum-free RPMI medium. As indicated, cells were pre-incubated with the Box5 peptide (100 μM) or control solvent for 40 min with continuous agitation. An aliquot of the cell suspension containing 25,000 cells and 100 μM Box5 or control solvent was then added to the upper transwell chamber, and the lower chamber was filled with serum-containing (10%) medium. The invasion chambers were shaken horizontally for 5 min to ensure even distribution of the cells in suspension and subsequently across the membrane surface. The cells were allowed to invade for the periods of time indicated at 37° C. in a humidified atmosphere of 5% CO2. The medium was discarded and cells were fixed in 4% paraformaldehyde for 10 min. The cells were stained with 0.5% crystal violet in 20% methanol for 10 min and the non-invading cells on the inner side of the membrane were removed with a cotton-tipped applicator. The membrane was cut out of the chamber using a scalpel blade and the stained cells on the lower chamber side of the membrane were counted.

A2058 melanoma cells [3] = assay: Wound-healing assay (migration), A2058 cells; conditions: 0.2 μg/ml Wnt-5a, serum-free medium
Description: Cells were plated in 12 well plates and allowed to grow into a confluent layer in complete RPMI (for A2058 cells) or complete McCoy's 5A medium (for HTB63 cells). As indicated, cells were pre-incubated with the Box5 peptide (100 μM) or control solvent for 40 min with continuous agitation. A wound was then inflicted by making a scratch through the confluent layer of cells with a pipette tip. During the migration period of the assay, cells were incubated either in serum-free medium or in the case of HTB63 cells in their own serum-free-conditioned medium collected from cells cultured for 48 h and used within 2 days after collection. The exact conditions of each experiment are described above. To avoid loss of activity, cell medium was changed after 24 hours. A picture for each scratch was taken in the same area of cells at 0, 16, 24, 40 and 48 hours, and wound healing was measured as percentage of wound area closed. For each experimental condition wound healing was analysed in triplicate. All data were based on 3 to 8 separate experiments as indicated.

B1: Wnt-5a: human recombinant Wnt-5a protein from R&D Systems (protein, UniProt P41221 62-380, looked up)
Protein Wnt-5a: IIGAQPLCSQLAGLSQGQKKLCHLYQDHMQYIGEGAKTGIKECQYQFRHRRWNCSTVDNTSVFGRVMQIGSRETAFTYAVSAAGVVNAMSRACREGELSTCGCSRAARPKDLPRDWLWGGCGDNIDYGYRFAKEFVDARERERIHAKGSYESARILMNLHNNEAGRRTVYNLADVACKCHGVSGSCSLKTCWLQLADFRKVGDALKEKYDSAAAMRLNSRGKLVQVNSRFNSPTTQDLVYIDPSPDYCVRNESTGSLGTQGRLCNKTSEGMDGCELMCCGRGYDQFKTVQTERCHCKFHWCCYVKCKKCTEIVDQFVCK
Concentration giving maximal effect on adhesion of A2058 cells (A2058 melanoma cells [1]): 0.2 µg/mL | Effect on adhesive capacity of A2058 cells (A2058 melanoma cells [1]): enhanced | Effect on invasion of A2058 cells (A2058 melanoma cells [2]): stimulate | Effect on migration of A2058 cells (A2058 melanoma cells [3]): increased
